# Results from patent US4609623A, “Microbiologically produced D-2-hydroxy-4-methylpentanoic acid dehydrogenase, process for its production and its use” (Degussa AG, priority 1983, dated 1986).
# B1: D-2-hydroxy-4-methylpentanoic acid dehydrogenase (Lacticaseibacillus paracasei) (protein)
# chain: MKIIAYGARVDEIQYFKQWAKDTGNTLEYHTEFLDENTVEWAKGFDGINSLQTTPYAAGVFEKMHAYGIKFLTIRNVGTDNIDMTAMKQYGIRLSNVPAYSPAAIAEFALTDTLYLLRNMGKVQAQLQAGDYEKAGTFIGKELGQQTVGVMGTGHIGQVAIKLFKGFGAKVIAYDPYPMKGDHPDFDYVSLEDLFKQSDVIDLHVPGIEQNTHIINEAAFNLMKPGAIVINTARPNLIDTQAMLSNLKSGKLAGVGIDTYEYETEDLLNLAKHGSFKDPLWDELLGMPNVVLSPHIAYYTETAVHNMVYFSLQHLVDFLTKGETSTEVTGPAK
# notes: 500 g Lactobacillus casei ssp. pseudoplantarum (DSM 20008) wet mass was suspended in 50 mM phosphate buffer; endogenous in cells; host or cells: Lactobacillus casei ssp. pseudoplantarum DSM 20008, enzyme isolated from the cells grown in house
# Key:
# [1] = target: T1, D-2-hydroxy-4-methylpentanoic acid dehydrogenase (Lacticaseibacillus paracasei, UniProt P17584); assay: Reduction kinetics: reaction velocity versus NADH and 2-ketocarboxylic acid concentration; assay type: biochemical, Lactobacillus casei ssp. pseudoplantarum; design: endogenous in cells; host or cells: Lactobacillus casei ssp. pseudoplantarum DSM 20008, enzyme isolated from the cells grown in house
# T1 sequence (P17584 1-333): B1 chain
# Experimental: The reaction speed for reduction of different 2-ketocarboxylic acids was also investigated as a function of the keto acid concentration. […] The ketocarboxylic acid concentration was in each case varied from 0.01 to a maximum of 60 mM. The initial reaction velocity, change of extinction at 340 nm/min, was evaluated by non-linear regression of the Michaelis-Menten equation.
# [2] = target: T1, D-2-hydroxy-4-methylpentanoic acid dehydrogenase; assay: Dehydrogenation kinetics: reaction velocity versus NAD+ and 2-hydroxycarboxylic acid concentration
# Experimental: The dependence of the reaction velocity on the NAD^+ concentration in the dehydrogenation of D-2-hydroxy-4-methylpentanoic acid was studied in the following test mixture: 0.1M phosphate buffer at pH 8.0, 12 mM D,L-2-hydroxy-4-methylpentanoic acid, limiting quantities of enzyme.
# The dependence of the reaction speed on the concentration of different 2-hydroxycarboxylic acids for the dehydrogenation of D-2-hydroxycarboxylicacids was tested in the following test mixture: 0.1M phosphate buffer at pH 8.0, 4.5 mM NAD^+ and limiting quantities of enzyme. The concentration of D-2-hydroxycarboxylic acid was varied in the range from 0.1 to a maximum of 30 mM. Inasmuch as no chiral D-2-hydroxycarboxylic acid was available, the racemate was added. […] The initial reaction velocity was evaluated according to Michaelis-Menten, and the kinetic constants Vmax and KM determined by non-linear regression.
# [3] = target: T1, D-2-hydroxy-4-methylpentanoic acid dehydrogenase; assay: Reduction of 2-ketocarboxylic acids in an enzyme membrane reactor with PEG-NADH, polarimetric read-out; assay type: biochemical, Lactobacillus casei ssp. pseudoplantarum (DSM 20008); design: endogenous in cells; host or cells: Lactobacillus casei ssp. pseudoplantarum DSM 20008, enzyme isolated from the cells grown in house; conditions: 7.0 mM 2-ketocarboxylic acid feed, stationary value; for Rotation of Production Solution: 463 nm, 25° C.
# Experimental: (Preparation according to DE-PS 28 41 414). The following keto acids were converted individually in the reactor:
# 2-keto-4-methylpentanoic acid (sodium salt), 2-keto-4-(methylmercapto)-butyric acid (sodium salt) and phenyl pyruvate (sodium salt). The product stream flowing out of the membrane reactor was analyzed continuously in a polarimeter. The signals obtained were evaluated by means of calibration curves which had been obtained from optically active 2-hydroxy acids.
# The PEG-NADH is prepared according to DE-PS No. 28 41 414. […] The reactor volume is kept constant, by adding keto acid and sodium formate buffer from a reservoir at the same rate as the ultrafiltrate leaves the reactor. The reactor volume was 10 ml, the concentration of PEG-NADH 0.20 mM, and 9 U D-2-hydroxy-4-methylpentanoic acid dehydrogenase (27 U/mg) and 30 U formate-dehydrogenase were fed into the reactor. The substrate solution contained 300 mM sodium formate buffer of pH 7.0 and 7.0 mM of the corresponding 2-ketocarboxylic acid. The reaction solution was pumped over the membrane continuously with a peristaltic pump at 30 ml/hour. About 3 ml ultrafiltrate per hour was obtained. The ultrafiltrate was led continuously through a polarimeter cell (Perkin Elmer Type 241). The determinations were carried out at 463 nm and 25° C. From the measured rotatory value, the product concentration was determined from a calibration curve. The calibration curves were prepared with optically active 2-hydroxycarboxylic acids in 300 mM sodium formate buffer of pH 7.0. For this, the following preparations were used: L-phenyllactic acid (Sigma Company, Munich), L-2-hydroxy-4-methylpentanoic acid (Sigma Company, Munich), and D-2-hydroxy-4-(methylmercapto)-butyric acid (Degussa Company, Hanau). The conversion in the membrane reactor was followed over a period of 15 hours.
# [4] = substrate: CC(C)C(=O)C(=O)O; assay: purified protein, by the assay type; assay type: biochemical, Lactobacillus casei ssp. pseudoplantarum; conditions: other: reduction, pH 7.0, 0.1 mM NADH
# [5] = substrate: CCC(C)C(=O)C(=O)O; assay: purified protein, by the assay type; assay type: biochemical, Lactobacillus casei ssp. pseudoplantarum; conditions: other: reduction, pH 7.0, 0.1 mM NADH
# [6] = substrate: CC(C)CC(=O)C(=O)O; assay: purified protein, by the assay type; assay type: biochemical, Lactobacillus casei ssp. pseudoplantarum; conditions: other: reduction, pH 7.0, 0.1 mM NADH
# [7] = substrate: CCCCCCC(=O)C(=O)O; assay: purified protein, by the assay type; assay type: biochemical, Lactobacillus casei ssp. pseudoplantarum; conditions: other: reduction, pH 7.0, 0.1 mM NADH
# [8] = substrate: CCCC(=O)C(=O)O; assay: purified protein, by the assay type; assay type: biochemical, Lactobacillus casei ssp. pseudoplantarum; conditions: other: reduction, pH 7.0, 0.1 mM NADH
# [9] = substrate: CCCCC(=O)C(=O)O; assay: purified protein, by the assay type; assay type: biochemical, Lactobacillus casei ssp. pseudoplantarum; conditions: other: reduction, pH 7.0, 0.1 mM NADH
# [10] = substrate: O=C(O)C(=O)CS; assay: purified protein, by the assay type; assay type: biochemical, Lactobacillus casei ssp. pseudoplantarum; conditions: other: reduction, pH 7.0, 0.1 mM NADH
# [11] = substrate: CCC(=O)C(=O)O; assay: purified protein, by the assay type; assay type: biochemical, Lactobacillus casei ssp. pseudoplantarum; conditions: other: reduction, pH 7.0, 0.1 mM NADH
# [12] = substrate: CSCCC(=O)C(=O)O; assay: purified protein, by the assay type; assay type: biochemical, Lactobacillus casei ssp. pseudoplantarum; conditions: other: reduction, pH 7.0, 0.1 mM NADH
# [13] = substrate: CCCC(O)C(=O)O; assay: purified protein, by the assay type; conditions: other: dehydrogenation, pH 8.0, 4.5 mM NAD+, calculated assuming 50% D-acid in the racemic mixtures
# [14] = substrate: NC(=O)C1=CN([C@@H]2O[C@H](COP(=O)(O)OP(=O)(O)OC[C@H]3O[C@@H](n4cnc5c(N)ncnc54)[C@H](O)[C@@H]3O)[C@@H](O)[C@H]2O)C=CC1; assay: purified protein, by the assay type; conditions: other: pH 7.0, 0.7 mM 2-keto-4-methylpentanoic acid
# [15] = substrate: CSCCC(O)C(=O)O; assay: purified protein, by the assay type; conditions: other: dehydrogenation, pH 8.0, 4.5 mM NAD+, calculated assuming 50% D-acid in the racemic mixtures
# [16] = substrate: NC(=O)c1ccc[n+]([C@@H]2O[C@H](COP(=O)([O-])OP(=O)(O)OC[C@H]3O[C@@H](n4cnc5c(N)ncnc54)[C@H](O)[C@@H]3O)[C@@H](O)[C@H]2O)c1; assay: purified protein, by the assay type; conditions: other: pH 8.0, 12 mM D,L-2-hydroxy-4-methylpentanoic acid
# [17] = substrate: CCCCC(O)C(=O)O; assay: purified protein, by the assay type; conditions: other: dehydrogenation, pH 8.0, 4.5 mM NAD+, calculated assuming 50% D-acid in the racemic mixtures
# [18] = substrate: O=C(O)C(O)Cc1ccccc1; assay: purified protein, by the assay type; conditions: other: dehydrogenation, pH 8.0, 4.5 mM NAD+, calculated assuming 50% D-acid in the racemic mixtures
# [19] = substrate: CCCCCCC(O)C(=O)O; assay: purified protein, by the assay type; conditions: other: dehydrogenation, pH 8.0, 4.5 mM NAD+, calculated assuming 50% D-acid in the racemic mixtures
# [20] = substrate: CC(C)CC(O)C(=O)O; assay: purified protein, by the assay type; conditions: other: dehydrogenation, pH 8.0, 4.5 mM NAD+, calculated assuming 50% D-acid in the racemic mixtures
# [21] = substrate: CC(C)C[C@@H](O)C(=O)O; assay: purified protein, by the assay type; conditions: other: dehydrogenation, pH 8.0, 4.5 mM NAD+, calculated assuming 50% D-acid in the racemic mixtures
# [22] = substrate: O=C(O)C(=O)Cc1ccccc1; assay: purified protein, by the assay type; conditions: other: reduction, pH 7.0, 0.1 mM NADH
molecule,measurement,setting,value
NC(=O)C1=CN([C@@H]2O[C@H](COP(=O)(O)OP(=O)(O)OC[C@H]3O[C@@H](n4cnc5c(N)ncnc54)[C@H](O)[C@@H]3O)[C@@H](O)[C@H]2O)C=CC1 [NADH],NADH concentration at which the optimal reaction velocity was reached,"[1]; pH 7.0, 0.7 mM 2-keto-4-methylpentanoic acid",0.10 mM
"NC(=O)c1ccc[n+]([C@@H]2O[C@H](COP(=O)([O-])OP(=O)(O)OC[C@H]3O[C@@H](n4cnc5c(N)ncnc54)[C@H](O)[C@@H]3O)[C@@H](O)[C@H]2O)c1 [NAD^+, nicotinamide-adeninedinucleotide]",NAD+ concentration at which the optimum conversion is reached,"[2]; pH 8.0, 12 mM D,L-2-hydroxy-4-methylpentanoic acid",4.5 mM
O=C(O)C(=O)Cc1ccccc1 [2-keto-3-phenylpropionic acid],Rotation of Production Solution,[3],-0.115 °
same,% conversion,[3],100%
same,Product concentration,[3],7.0 mM
CSCCC(=O)C(=O)O [2-keto-4-(methylmercapto)-butyric acid],Rotation of Production Solution,[3],-0.071 °
same,% conversion,[3],98%
same,Product concentration,[3],6.9 mM
NC(=O)C1=CN([C@@H]2O[C@H](COP(=O)(O)OP(=O)(O)OC[C@H]3O[C@@H](n4cnc5c(N)ncnc54)[C@H](OP(=O)(O)O)[C@@H]3O)[C@@H](O)[C@H]2O)C=CC1 [NADPH],Replacement of the coenzyme NADH,[1]; checked up to a test concentration of 0.2 mM,cannot replace
NC(=O)c1ccc[n+]([C@@H]2O[C@H](COP(=O)([O-])OP(=O)(O)OC[C@H]3O[C@@H](n4cnc5c(N)ncnc54)[C@H](OP(=O)(O)O)[C@@H]3O)[C@@H](O)[C@H]2O)c1 [NADP],Replacement of the coenzyme NAD+,[2]; checked at test concentrations up to 10 mM,cannot replace
CC(C)CC(=O)C(=O)O [2-keto-4-methylpentanoic acid],Rotation of Production Solution,[3],-0.047 °
same,% conversion,[3],100%
same,Product concentration,[3],7.0 mM
B1,Km,[4],4800 µM
same,Vmax,[4],16.9 µmol/min/mg
same,Km,[5],2200 µM
same,Vmax,[5],26.2 µmol/min/mg
same,Km,[6],60 µM
same,Vmax,[6],27.4 µmol/min/mg
same,Km,[7],310 µM
same,Vmax,[7],54.0 µmol/min/mg
same,Km,[8],110 µM
same,Vmax,[8],59.1 µmol/min/mg
same,Km,[9],110 µM
same,Vmax,[9],58.4 µmol/min/mg
same,Km,[10],400 µM
same,Vmax,[10],104.5 µmol/min/mg
same,Km,[11],1700 µM
same,Vmax,[11],45.9 µmol/min/mg
same,Km,[12],620 µM
same,Vmax,[12],82.1 µmol/min/mg
same,Km,[13],700 µM
same,Vmax,[13],10.8 µmol/min/mg
same,Km,[14],10 µM
same,Km,[15],1500 µM
same,Vmax,[15],2.6 µmol/min/mg
same,Km,[16],450 µM
same,Km,[17],470 µM
same,Vmax,[17],11.3 µmol/min/mg
same,Km,[18],1100 µM
same,Vmax,[18],32.6 µmol/min/mg
same,Km,[19],310 µM
same,Vmax,[19],10.0 µmol/min/mg
same,Km,[20],1400 µM
same,Vmax,[20],20.2 µmol/min/mg
same,Km,[21],1400 µM
same,Vmax,[21],20.2 µmol/min/mg
same,Km,[22],150 µM
same,Vmax,[22],304.4 µmol/min/mg
